We go through one molecule from US20220331453A1 (INDUSTRY UNIVERSITY COOPERATION FOUNDATION HANYANG …, published 2022).

In this experiment the target is T1, VEGFR1 (Flt1) on the membrane of HUVECs (human, UniProt P17948 27-1338).
T1 construct: whole, on cells; Endogenous receptor on HUVECs; also called fms-like tyrosine kinase-1
Put plainly: fluorescence imaging of HUVECs with dye-conjugated cage. As for the experimental part: HUVECs were spread onto a 48-well plate at 4×10⁴ cells/well and then cultured overnight. The HUVECs were incubated with 50 ng/mL human recombinant rhVEGF₁₆₅ and dye-conjugated fusion protein cage at different concentrations for 15, 30 and 60 minutes at 37° C. The HUVECs were imaged in a […] (Zeiss, Oberkochen, Germany) using FITC.
A maleimide-modified fluorescent dye was conjugated at the thiol of HPC, and the conjugation of the fluorescent dye to the polypeptide was qualitatively identified by SDS-PAGE. The fluorescent dye-conjugated anti-Flt1-HPC4-EBPP[A₁G₄I₁]₆-PEDF 34-mer-EBPP[A₁G₄I₁]₆-HPC5 was visualized by exposure to UV light on SDS-PAGE without gel staining. In FIG. 5 (A) (b), the location of the dye-conjugated polypeptide is compared under UV light with that of a marker in a bright-field mode. The location corresponded to that of the fusion polypeptide on the copper-stained SDS-PAGE gel prior to the dye conjugation (FIG. 5 (A) (a)). The conjugation of the dye to anti-Flt1-HPC4-EBPP[A₁G₄I₁]₆-PEDF 34-mer-EBPP[A₁G₄I₁]₆-HPC5 was confirmed from the fluorescence spectrum. […] HUVECs were spread onto a […] plate and then cultured overnight. The HUVECs were incubated with 1 μM or 10 μM dye-conjugated polypeptide for 15, 30 or 60 minutes. […]

T1 sequence (P17948 27-1338): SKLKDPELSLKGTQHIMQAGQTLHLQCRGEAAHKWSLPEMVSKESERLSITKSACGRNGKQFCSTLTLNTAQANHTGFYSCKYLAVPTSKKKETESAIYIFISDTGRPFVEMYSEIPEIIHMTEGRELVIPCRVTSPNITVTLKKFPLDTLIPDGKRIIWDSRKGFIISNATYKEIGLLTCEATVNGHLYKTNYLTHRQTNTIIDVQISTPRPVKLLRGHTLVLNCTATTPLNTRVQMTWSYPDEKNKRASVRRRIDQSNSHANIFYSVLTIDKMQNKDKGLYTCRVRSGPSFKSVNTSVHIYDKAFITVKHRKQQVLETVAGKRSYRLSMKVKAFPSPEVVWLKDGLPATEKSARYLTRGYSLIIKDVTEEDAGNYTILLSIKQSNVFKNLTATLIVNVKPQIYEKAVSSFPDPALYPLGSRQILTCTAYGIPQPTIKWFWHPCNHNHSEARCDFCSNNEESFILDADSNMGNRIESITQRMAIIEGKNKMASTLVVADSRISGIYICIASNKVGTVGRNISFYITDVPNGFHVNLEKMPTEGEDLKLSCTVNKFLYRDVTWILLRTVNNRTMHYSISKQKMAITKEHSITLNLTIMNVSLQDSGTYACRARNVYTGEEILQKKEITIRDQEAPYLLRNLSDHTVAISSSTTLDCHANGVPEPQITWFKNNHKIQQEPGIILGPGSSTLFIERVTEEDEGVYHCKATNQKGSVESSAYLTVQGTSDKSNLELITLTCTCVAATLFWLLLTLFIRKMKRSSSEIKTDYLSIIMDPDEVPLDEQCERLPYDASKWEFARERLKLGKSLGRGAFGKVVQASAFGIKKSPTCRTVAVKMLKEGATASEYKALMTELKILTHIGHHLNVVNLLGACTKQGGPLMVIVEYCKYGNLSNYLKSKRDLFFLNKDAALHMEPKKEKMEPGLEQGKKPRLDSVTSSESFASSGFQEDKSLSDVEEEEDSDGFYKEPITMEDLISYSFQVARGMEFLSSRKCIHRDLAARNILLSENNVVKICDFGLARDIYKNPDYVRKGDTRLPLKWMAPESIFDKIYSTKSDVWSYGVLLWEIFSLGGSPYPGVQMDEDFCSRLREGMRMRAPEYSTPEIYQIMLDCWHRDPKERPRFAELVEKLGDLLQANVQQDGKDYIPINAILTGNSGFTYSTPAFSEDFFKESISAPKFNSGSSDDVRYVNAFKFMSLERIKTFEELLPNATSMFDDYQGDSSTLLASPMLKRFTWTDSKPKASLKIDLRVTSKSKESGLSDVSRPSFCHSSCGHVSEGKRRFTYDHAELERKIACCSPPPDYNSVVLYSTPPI

B1: fluorescent dye-conjugated anti-Flt1-HPC4-EBPP[A1G4I1]6-PEDF 34-mer-EBPP[A1G4I1]6-HPC5 (designed binder)
chain: GNQWFISSQIRQNYSTDVEAAVNSLVNLYLQASYTYLSLGFYFDRDDVALEGVSHFFRELAEEKREGYERLLKMQNQRGGRALFQDIKKPAEDEWGKTPDAMKAAMALEKKLNQALLDLHALGSARTDPHLCDFLETHFLDEEVKLIKKMGDHLTNLHRLGGVPAGGVPAAGVPAGGVPAGGVPAIGVPAGGVPAGGVPAAGVPAGGVPAGGVPAIGVPAGGVPAGGVPAAGVPAGGVPAGGVPAIGVPAGGVPAGGVPAAGVPAGGVPAGGVPAIGVPAGGVPAGGVPAAGVPAGGVPAGGVPAIGVPAGGVPAGGVPAAGVPAGGVPAGGVPAIGVPAGGDPFFKVPVNKLAAAVSNFGYDLYRVRSSTSPTTNVPAGGVPAAGVPAGGVPAGGVPAIGVPAGGVPAGGVPAAGVPAGGVPAGGVPAIGVPAGGVPAGGVPAAGVPAGGVPAGGVPAIGVPAGGVPAGGVPAAGVPAGGVPAGGVPAIGVPAGGVPAGGVPAAGVPAGGVPAGGVPAIGVPAGGVPAGGVPAAGVPAGGVPAGGVPAIGVPAGGPEAGLGEYLFERLTLKHD
modifications: Alexa Fluor 488 C5 maleimide conjugated at cysteine (thiol of HPC) via thiol-maleimide reaction
notes: also called dye-conjugated fusion protein cage; dye-conjugated polypeptide
Turning to B1, the binding result is reported as “binds”.
